The values that follow come from patent US20230357348A1 (AstraZeneca / MedImmune, published 2023).

Test [1] has as its target human GLP-1 receptor (hGLP-1R) (human, UniProt P43220 24-463). Put plainly: cell-based or functional assay.
The target in test [2] is human glucagon receptor (hGCGR) (human, UniProt P47871 26-477). As to the kind of experiment: cell-based or functional assay.

Starred links: 1 amine or outer side, 2 acyl side, 3 side chain; linkers in the order of their positions; H or OH if unused. Non-standard residues stand in square brackets, D forms with d. Groups on a side chain read outwards from the residue. No end group written: not given here. *: point of attachment. C20 diacid = O=C(O)CCCCCCCCCCCCCCCCCCC(=O)*; C18 diacid = O=C(O)CCCCCCCCCCCCCCCCC(=O)*; γGlu = O=C(O)[C@H](CCC(=O)[*:2])N[*:1]; αMeF = C[C@](N)(Cc1ccccc1)C(=O)O; AEEA = NCCOCCOCC(=O)O; Aib = CC(C)(N)C(=O)O

Chain of human glucagon receptor (hGCGR) (P47871 26-477): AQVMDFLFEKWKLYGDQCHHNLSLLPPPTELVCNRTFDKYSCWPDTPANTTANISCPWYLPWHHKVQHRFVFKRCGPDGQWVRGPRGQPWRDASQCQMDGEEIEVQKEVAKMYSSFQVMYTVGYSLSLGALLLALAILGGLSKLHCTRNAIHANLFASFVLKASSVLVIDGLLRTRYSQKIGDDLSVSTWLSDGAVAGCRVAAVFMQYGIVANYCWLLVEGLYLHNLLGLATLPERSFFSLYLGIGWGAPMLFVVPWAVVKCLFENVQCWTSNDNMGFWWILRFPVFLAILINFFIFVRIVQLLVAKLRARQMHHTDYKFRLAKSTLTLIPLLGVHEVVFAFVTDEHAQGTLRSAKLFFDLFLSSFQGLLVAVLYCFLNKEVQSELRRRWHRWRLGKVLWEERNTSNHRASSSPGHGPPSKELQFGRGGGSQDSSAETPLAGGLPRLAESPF

B1: Peptide 440 (peptide)
peptide: H[Aib]QGTFTSDVSK[αMeF]LDKK([AEEA-AEEA-γGlu-C20 diacid])RARDFVRWLL[Aib]E-OH
modifications: N-terminus assumed
SMILES: CC(C)C[C@H](NC(=O)[C@H](Cc1c[nH]c2ccccc12)NC(=O)[C@H](CCCNC(=N)N)NC(=O)[C@@H](NC(=O)[C@H](Cc1ccccc1)NC(=O)[C@H](CC(=O)O)NC(=O)[C@H](CCCNC(=N)N)NC(=O)[C@H](C)NC(=O)[C@H](CCCNC(=N)N)NC(=O)[C@H](CCCCNC(=O)COCCOCCNC(=O)COCCOCCNC(=O)CC[C@H](NC(=O)CCCCCCCCCCCCCCCCCCC(=O)O)C(=O)O)NC(=O)[C@H](CCCCN)NC(=O)[C@H](CC(=O)O)NC(=O)[C@H](CC(C)C)NC(=O)[C@](C)(Cc1ccccc1)NC(=O)[C@H](CCCCN)NC(=O)[C@H](CO)NC(=O)[C@@H](NC(=O)[C@H](CC(=O)O)NC(=O)[C@H](CO)NC(=O)[C@@H](NC(=O)[C@H](Cc1ccccc1)NC(=O)[C@@H](NC(=O)CNC(=O)[C@H](CCC(N)=O)NC(=O)C(C)(C)NC(=O)[C@@H](N)Cc1c[nH]cn1)[C@@H](C)O)[C@@H](C)O)C(C)C)C(C)C)C(=O)N[C@@H](CC(C)C)C(=O)NC(C)(C)C(=O)N[C@@H](CCC(=O)O)C(=O)O
As for B1, the “hGLP-1R EC50 (pM)” value in test [1] stood at 154 pM. Moreover, the “hGluc-R EC50 (pM)” value in test [2] was 81 pM.

B2: Peptide 436 (peptide)
peptide: H[Aib]QGTFTSDVSK[αMeF]LDRK([AEEA-AEEA-γGlu-C18 diacid])RAQDFVRWLV[Aib]E-NH2
modifications: N-terminus assumed
SMILES: CC(C)C[C@H](NC(=O)[C@H](Cc1c[nH]c2ccccc12)NC(=O)[C@H](CCCNC(=N)N)NC(=O)[C@@H](NC(=O)[C@H](Cc1ccccc1)NC(=O)[C@H](CC(=O)O)NC(=O)[C@H](CCC(N)=O)NC(=O)[C@H](C)NC(=O)[C@H](CCCNC(=N)N)NC(=O)[C@H](CCCCNC(=O)COCCOCCNC(=O)COCCOCCNC(=O)CC[C@H](NC(=O)CCCCCCCCCCCCCCCCC(=O)O)C(=O)O)NC(=O)[C@H](CCCNC(=N)N)NC(=O)[C@H](CC(=O)O)NC(=O)[C@H](CC(C)C)NC(=O)[C@](C)(Cc1ccccc1)NC(=O)[C@H](CCCCN)NC(=O)[C@H](CO)NC(=O)[C@@H](NC(=O)[C@H](CC(=O)O)NC(=O)[C@H](CO)NC(=O)[C@@H](NC(=O)[C@H](Cc1ccccc1)NC(=O)[C@@H](NC(=O)CNC(=O)[C@H](CCC(N)=O)NC(=O)C(C)(C)NC(=O)[C@@H](N)Cc1c[nH]cn1)[C@@H](C)O)[C@@H](C)O)C(C)C)C(C)C)C(=O)N[C@H](C(=O)NC(C)(C)C(=O)N[C@@H](CCC(=O)O)C(N)=O)C(C)C
For B2, in test [1], the “hGLP-1R EC50 (pM)” value came out at 7.43 pM. Further, the “hGluc-R EC50 (pM)” value in test [2] amounted to 68.8 pM.

B3: Peptide 439 (peptide)
peptide: H[Aib]QGTFTSDVSK[αMeF]LDRK([AEEA-AEEA-γGlu-C18 diacid])RAQDFVRWLL[Aib]E-NH2
modifications: N-terminus assumed
SMILES: CC(C)C[C@H](NC(=O)[C@H](Cc1c[nH]c2ccccc12)NC(=O)[C@H](CCCNC(=N)N)NC(=O)[C@@H](NC(=O)[C@H](Cc1ccccc1)NC(=O)[C@H](CC(=O)O)NC(=O)[C@H](CCC(N)=O)NC(=O)[C@H](C)NC(=O)[C@H](CCCNC(=N)N)NC(=O)[C@H](CCCCNC(=O)COCCOCCNC(=O)COCCOCCNC(=O)CC[C@H](NC(=O)CCCCCCCCCCCCCCCCC(=O)O)C(=O)O)NC(=O)[C@H](CCCNC(=N)N)NC(=O)[C@H](CC(=O)O)NC(=O)[C@H](CC(C)C)NC(=O)[C@](C)(Cc1ccccc1)NC(=O)[C@H](CCCCN)NC(=O)[C@H](CO)NC(=O)[C@@H](NC(=O)[C@H](CC(=O)O)NC(=O)[C@H](CO)NC(=O)[C@@H](NC(=O)[C@H](Cc1ccccc1)NC(=O)[C@@H](NC(=O)CNC(=O)[C@H](CCC(N)=O)NC(=O)C(C)(C)NC(=O)[C@@H](N)Cc1c[nH]cn1)[C@@H](C)O)[C@@H](C)O)C(C)C)C(C)C)C(=O)N[C@@H](CC(C)C)C(=O)NC(C)(C)C(=O)N[C@@H](CCC(=O)O)C(N)=O
With B3, the “hGLP-1R EC50 (pM)” value in test [1] turned out to be 30.6 pM. Also, in test [2], the “hGluc-R EC50 (pM)” value was 57.7 pM.

B4: Peptide 437 (peptide)
peptide: H[Aib]QGTFTSDVSK[αMeF]LDRK([AEEA-AEEA-γGlu-C20 diacid])RAQDFVRWLV[Aib]E-NH2
modifications: N-terminus assumed
SMILES: CC(C)C[C@H](NC(=O)[C@H](Cc1c[nH]c2ccccc12)NC(=O)[C@H](CCCNC(=N)N)NC(=O)[C@@H](NC(=O)[C@H](Cc1ccccc1)NC(=O)[C@H](CC(=O)O)NC(=O)[C@H](CCC(N)=O)NC(=O)[C@H](C)NC(=O)[C@H](CCCNC(=N)N)NC(=O)[C@H](CCCCNC(=O)COCCOCCNC(=O)COCCOCCNC(=O)CC[C@H](NC(=O)CCCCCCCCCCCCCCCCCCC(=O)O)C(=O)O)NC(=O)[C@H](CCCNC(=N)N)NC(=O)[C@H](CC(=O)O)NC(=O)[C@H](CC(C)C)NC(=O)[C@](C)(Cc1ccccc1)NC(=O)[C@H](CCCCN)NC(=O)[C@H](CO)NC(=O)[C@@H](NC(=O)[C@H](CC(=O)O)NC(=O)[C@H](CO)NC(=O)[C@@H](NC(=O)[C@H](Cc1ccccc1)NC(=O)[C@@H](NC(=O)CNC(=O)[C@H](CCC(N)=O)NC(=O)C(C)(C)NC(=O)[C@@H](N)Cc1c[nH]cn1)[C@@H](C)O)[C@@H](C)O)C(C)C)C(C)C)C(=O)N[C@H](C(=O)NC(C)(C)C(=O)N[C@@H](CCC(=O)O)C(N)=O)C(C)C
As for B4, the “hGLP-1R EC50 (pM)” value in test [1] was determined as 26.9 pM. The “hGluc-R EC50 (pM)” value in test [2] stood at 96.9 pM.

B5: Peptide 438 (peptide)
peptide: H[Aib]QGTFTSDVSK[αMeF]LDKK([AEEA-AEEA-γGlu-C18 diacid])RAQDFVRWLEA[Aib]G-NH2
modifications: N-terminus assumed
SMILES: CC(C)C[C@H](NC(=O)[C@H](Cc1c[nH]c2ccccc12)NC(=O)[C@H](CCCNC(=N)N)NC(=O)[C@@H](NC(=O)[C@H](Cc1ccccc1)NC(=O)[C@H](CC(=O)O)NC(=O)[C@H](CCC(N)=O)NC(=O)[C@H](C)NC(=O)[C@H](CCCNC(=N)N)NC(=O)[C@H](CCCCNC(=O)COCCOCCNC(=O)COCCOCCNC(=O)CC[C@H](NC(=O)CCCCCCCCCCCCCCCCC(=O)O)C(=O)O)NC(=O)[C@H](CCCCN)NC(=O)[C@H](CC(=O)O)NC(=O)[C@H](CC(C)C)NC(=O)[C@](C)(Cc1ccccc1)NC(=O)[C@H](CCCCN)NC(=O)[C@H](CO)NC(=O)[C@@H](NC(=O)[C@H](CC(=O)O)NC(=O)[C@H](CO)NC(=O)[C@@H](NC(=O)[C@H](Cc1ccccc1)NC(=O)[C@@H](NC(=O)CNC(=O)[C@H](CCC(N)=O)NC(=O)C(C)(C)NC(=O)[C@@H](N)Cc1c[nH]cn1)[C@@H](C)O)[C@@H](C)O)C(C)C)C(C)C)C(=O)N[C@@H](CCC(=O)O)C(=O)N[C@@H](C)C(=O)NC(C)(C)C(=O)NCC(N)=O
For the molecule B5, the “hGLP-1R EC50 (pM)” value in test [1] was 17.9 pM. Also, the “hGluc-R EC50 (pM)” value in test [2] came out at 68.9 pM.
